The nature of data set [1]: Activatability of hGCase mutants by phosphatidylserine. The data set is classed as biochemical. The following applies: 25 nM protein; for phosphatidylserine activation, fold increase of initial activity: 4 μM phosphatidylserine, 10 min pre-incubation at RT. Here is the method:
Negatively charged lipids as phosphatidylserine are known to stabilize and activate the enzyme usually in combination with Saposin C (SAP-2), since GCase is naturally interacting with the membrane of the lysosomes in vivo. For the assay, 25 nM protein and 4 μM phosphatidylserine (Avanti; 10 mM stock solution dissolved in chloroform) were tested.
After adding the lipid to the enzyme, the solution was pre-incubated for 10 min at RT before adding the substrate and initializing the enzymatic reaction. The hGCase activity without added phosphatidylserine was set to 100% relative enzyme activity. The increase in activity was expressed as X-fold the initial activity without activator.
Several physiological substances have been reported to stimulate the activity of glucocerebrosidase. GCase is naturally interacting with the membrane of the lysosomes in vivo, thus negatively charged lipids such as phosphatidylserine are known to stabilize and activate the enzyme alone or in combination with Saposin C (SAP-2) (Qi & Grabowski, 1998; Sun et al., 2002; Vaccaro et al., 1995). Thus, it is essential to preserve these properties when modifying the GCase enzyme structure. To this end, the effect of phosphatidylserine alone was evaluated as first approach. The activity levels with and without added phosphatidylserine are plotted in FIG. 6.
By translating the data into fold increase of the initial activity, a more conclusive statement can be drawn (FIG. 7).

The test system of data set [2] is H4 glioblastoma GBA-KO cells. Nature of the data set: Reduction of natural substrate GlcSph in H4 GBA-KO cells (LC/MS). The data set is classed as cell-based, human. The following applies: 48 h, vs untreated H4 GBA-KO cells. The procedure:
FIG. 9: Reduction of the natural substrate GlcSph after treatment of H4 glioblastoma GBA-KO cells with hGCase molecules. Treatment concentration (hGCase protein): 1, 10 and 100 nM, respectively. Analysis of substrate levels after 48 h of incubation via LC/MS. H4 wt cells (GCase levels normalized to 100%) and H4 GBA-KO cells (loss of GBA gene) served as control. ^1 measured glucosylsphingosine (GlcSph) levels normalized to total protein amount. ^2 H4 glioblastoma cells with knock-out GBA gene.
(§1) Human H4 glioblastoma cells (H4 cells) were taken as human neuronal model to test purified hGCase variants in a cell-based setup. H4 wild-type cells and untreated H4 GBA-KO cells (knock-out of related GCase GBA gene) were taken as references. After seeding (40000 cells/well) and incubating them for ˜24 h, the GBA-KO cells were treated with 1, 10 and 100 nM of target protein sample and incubated for either 2 h (for uptake and GCase activity measurements) or 48 h (for substrate reduction measurements) at 37° C. with 5% CO2 and constant humidity. After cell-lysis (GCase activity buffer (table 2.6)+0.1% (w/v) Triton X-100+phosphatase (Phospho stop Roche in-house)+protease inhibitor (cOmplete EDTA-free)), the uptake of the enzymes into the cells was evaluated by measuring the hGCase concentration via AlphaLISA (section 2.3.6) as well as the activity after the uptake (section 2.3.5). Samples for substrate reduction determination were hand over to Iris Ruf (SMR, see section 2.7). Due to the loss of the GCase related GBA gene in H4 GBA-KO cells, the natural substrate glucosylsphingosine (GlcSph) accumulates. The reduction of GlcSph levels due to hGCase treatment was evaluated via LC/MS by Iris Ruf (SMR).
(§2) Finally, the cellular uptake, activity and substrate reduction in human neuronal cells were determined to test the mutants' efficacy in a more cellular context. In this work, human H4 glioblastoma wild-type cells (wt) and H4 GBA-KO cells (knock-out of GCase related GBA gene) were used as a Gaucher cell model. H4 GBA-KO cells, which accumulate the natural substrate glucosylsphingosine (GlcSph) due to the loss of the GBA gene, were treated with 1, 10 and 100 nM of hGCase molecules, respectively. Activity and protein concentration (via AlphaLISA) were measured after two hours of incubation after several media wash steps. The reduction of natural substrate GlcSph was analyzed 48 h after cell treatment via LC/MS. The activity measured after uptake into the cells normalized to measured hGCase protein levels is graphed in FIG. 8. The evaluated activities are given as percentage of hGCase activity measured in wt H4 cells, set to 100%.
To determine the enzymes' efficacies, the reduction of accumulated glucosylsphingosine (GlcSph) in H4 GBA-KO cells was investigated.

In data set [3] the test system is H4 glioblastoma GBA-KO cells. As to the kind of experiment: GCase activity after uptake into H4 GBA-KO cells, normalized to hGCase protein level. The data set is classed as cell-based, human. The following applies: 2 h incubation. Here is the method: FIG. 8: Activity levels normalized to hGCase protein levels measured after treatment of H4 glioblastoma GBA-KO cells with hGCase molecules. Treatment concentration (hGCase protein): 1, 10 and 100 nM (100 nM not shown herein), respectively. Activity and protein amount measurement after 2 h of incubation. Activity measured with artificial substrate res-β-glc (20 μM); protein concentration determination via AlphaLISA (section 2.3.6). H4 wt cells (GCase levels normalized to 100%) and H4 GBA-KO cells (loss of GBA gene) served as control. ^1 GCase activity measured in H4 cells normalized to activity measured in H4 (wt) cells designated to 100% and normalized to protein amount. ^2 H4 glioblastoma cells with knock-out GBA gene.
as §1
as §2, with “H4 GBA-KO cells, which accumulate the natural substrate glucosylsphingosine (GlcSph) due to the loss of the GBA gene, were treated with 1, 10 and 100 nM of hGCase molecules, respectively.” left out

Numbering of substitutions follows the chain as printed. Numbers in names are those of the source.

B1: R495HS2: hGCase based on the Cerezyme sequence (R495H) but produced in S2 cells, His8-tagged; Seq. Id. No. 1 (protein, listed as Homo sapiens)
chain: ARPCIPKSFGYSSVVCVCNATYCDSFDPPTFPALGTFSRYESTRSGRRMELSMGPIQANHTGTGLLLTLQPEQKFQKVKGFGGAMTDAAALNILALSPPAQNLLLKSYFSEEGIGYNIIRVPMASCDFSIRTYTYADTPDDFQLHNFSLPEEDTKLKIPLIHRALQLAQRPVSLLASPWTSPTWLKTNGAVNGKGSLKGQPGDIYHQTWARYFVKFLDAYAEHKLQFWAVTAENEPSAGLLSGYPFQCLGFTPEHQRDFIARDLGPTLANSTHHNVRLLMLDDQRLLLPHWAKVVLTDPEAAKYVHGIAVHWYLDFLAPAKATLGETHRLFPNTMLFASEACVGSKFWEQSVRLGSWDRGMQYSHSIITNLLYHVVGWTDWNLALNPEGGPNWVRNFVDSPIIVDITKDTFYKQPMFYHLGHFSKFIPEGSQRVGLVASQKNDLDAVALMHPDGSAVVVVLNRSSKDVPLTIKDPAVGFLETISPGYSIHTYLWHRQ
modifications: His8 tag
Take B1: in data set [1], the “phosphatidylserine activation, fold increase of initial activity” value is 4.9 fold. In data set [2] (10 nM treatment), the “reduction in GlcSph levels (%)” value was about 75% and the “reduction in GlcSph levels (fold)” value came out at 4 fold.

B2: imiglucerase (protein, UniProt P04062 40-536, looked up, variant R495H)
Lysosomal acid …: B1 chain
modifications: imiglucerase; CHO-produced
notes: Commercially available Cerezyme (imiglucerase, Genzyme), hGCase R495H produced in CHO cells
For the molecule B2, in data set [1], the “phosphatidylserine activation, fold increase of initial activity” value amounted to 11.5 fold. In addition, the “GCase activity level normalized to H4 wt GCase activity (100%) and protein amount” value amounted to 4% in data set [3] (1 nM protein treatment) and 44% in data set [3] (10 nM protein treatment). The “reduction in GlcSph levels (%)” value in data set [2] (1 nM treatment) is 82%; in data set [2] (10 nM treatment) it was 97%.

B3: I5N: recombinant human β-glucocerebrosidase variant R495H/I5N, S2 cells; Seq. Id. No. 4 (protein, listed as Homo sapiens)
chain: B1 chain with I5N
notes: recombinant human β-glucocerebrosidase variant R495H/I5N, S2 cells; Id; No. 4
B3: in data set [1] (no phosphatidylserine), the “basal activity level (no added lipid)” value was “least basal activity level”. In data set [1], the “phosphatidylserine activation, fold increase of initial activity” value was 7.5 fold. In data set [2] (10 nM treatment), the “reduction in GlcSph levels (%)” value was about 75% and the “reduction in GlcSph levels (fold)” value was 4 fold.

B4: M53T/P55T: recombinant human β-glucocerebrosidase variant R495H/M53T/P55T, S2 cells; Seq. Id. No. 7 (protein, listed as Homo sapiens)
chain: B1 chain with M53T, P55T
notes: recombinant human β-glucocerebrosidase variant R495H/M53T/P55T, S2 cells; Id; No. 7
With B4, the “phosphatidylserine activation, fold increase of initial activity” value in data set [1] is 6.5 fold. In addition, the “GCase activity level normalized to H4 wt GCase activity (100%) and protein amount” value in data set [3] (1 nM protein treatment) is on record as about 4%. Further, in data set [3] (10 nM protein treatment), the “GCase activity level normalized to H4 wt GCase activity (100%) and protein amount” value is 26%. Moreover, in data set [2] (10 nM treatment), the “reduction in GlcSph levels (%)” value is about 88% and the “reduction in GlcSph levels (fold)” value stood at 8.3 fold.

B5: K321N/H145L: Amicus double mutant hGCase R495H/K321N/H145L produced in S2 cells; Seq. Id. No. 3 (protein, listed as Homo sapiens)
chain: B1 chain with H145L, K321N
notes: Amicus double mutant hGCase R495H/K321N/H145L produced in S2 cells; Id; No. 3
In the case of B5, the “phosphatidylserine activation, fold increase of initial activity” value in data set [1] is recorded as about 2.8 fold.

The values are drawn from US20220325265A1, “GLUCOCEREBROSIDASE MUTANTS” (Hoffmann-la Roche Inc., priority 2019, published 2022).
